Laboratory results from patent US11230581B2, “Peptides and combination of peptides for use in immunotherapy against ovarian cancer and other cancers” (Immatics Biotechnologies GmbH, priority 2015, dated 2022).

Target: HLA-A*02:01 (Homo sapiens, UniProt P04439, D140Y/D185E/D98H/E176V/E277Q/G131W/G231S/I119V/I121R/I166T/I218V/L300P/L318F/N151K/N90K/P208A/P217A/Q86G/Q94H/R138H/R169H/T345S)
Assay: MHC binding assay (UV-ligand exchange, β2m ELISA, peptide exchange yield)
Conditions: binding of HLA-class I restricted peptides to HLA-A*02:01, UV-ligand exchange
Description: Candidate peptides for T cell based therapies according to the present invention were further tested for their MHC binding capacity (affinity). The individual peptide-MHC complexes were produced by UV-ligand exchange, where a UV-sensitive peptide is cleaved upon UV-irradiation, and exchanged with the peptide of interest as analyzed. Only peptide candidates that can effectively bind and stabilize the peptide-receptive MHC molecules prevent dissociation of the MHC complexes. To determine the yield of the exchange reaction, an ELISA was performed based on the detection of the light chain (β2m) of stabilized MHC complexes. The assay was performed as generally described in Rodenko et al. (Rodenko et al., 2006).
96 well MAXISorp plates (NUNC) were coated over night with 2 ug/ml streptavidin in PBS at room temperature, washed 4× and blocked for 1h at 37° C. in 2% BSA containing blocking buffer. […] Peptide-MHC monomers of the UV-exchange reaction were diluted 100 fold in blocking buffer. Samples were incubated for 1 h at 37° C., washed four times, incubated with 2 ug/ml HRP conjugated anti-β2m for 1h at 37° C., washed again and detected with TMB solution that is stopped with […]. Absorption was measured at 450 nm. Candidate peptides that show a high exchange yield (preferably higher than 50%, most preferred higher than 75%) are generally preferred for a generation and production of antibodies or fragments thereof, and/or T cell receptors or fragments thereof, as they show sufficient avidity to the MHC molecules and prevent dissociation of the MHC complexes.

| Substance | Peptide exchange (MHC class I binding score, peptide exchange yield) |
| --- | --- |
| 60 (SLTIDGIYYV; listed as Homo sapiens) [compound 60] | “++++” (≥75% = ++++) |
| 61 (FLQGYQLHL; listed as Homo sapiens) [compound 61] | “++++” (≥75% = ++++) |
| 62 (VLLDVSAGQLLM; listed as Homo sapiens) [compound 62] | “++++” (≥75% = ++++) |
| 63 (YLLPSGGSVTL; listed as Homo sapiens) [compound 63] | “++” (≥20% = ++) |
| 64 (YAAPGGLIGV; listed as Homo sapiens) [compound 64] | “++” (≥20% = ++) |
| 66 (FLDENIGGVAV; listed as Homo sapiens) [compound 66] | “+++” (≥50 = +++) |
| 67 (TLLAEALVTV; listed as Homo sapiens) [compound 67] | “+++” (≥50 = +++) |
| 68 (SLMELPRGLFL; listed as Homo sapiens) [compound 68] | “++++” (≥75% = ++++) |
| 69 (FQLDPSSGVLVTV; listed as Homo sapiens) [compound 69] | “+++” (≥50 = +++) |
| 70 (GLLDYPVGV; listed as Homo sapiens) [compound 70] | “+++” (≥50 = +++) |
| 71 (GILARIASV; listed as Homo sapiens) [compound 71] | “+++” (≥50 = +++) |
| 72 (SLLELDGINL; listed as Homo sapiens) [compound 72] | “+++” (≥50 = +++) |
| 73 (NIFDLQIYV; listed as Homo sapiens) [compound 73] | “+++” (≥50 = +++) |
| 74 (ALLDPEVLSIFV; listed as Homo sapiens) [compound 74] | “+++” (≥50 = +++) |
| 75 (GLLEVMVNL; listed as Homo sapiens) [compound 75] | “+++” (≥50 = +++) |
| 76 (ILIDSIYKV; listed as Homo sapiens) [compound 76] | “+++” (≥50 = +++) |
| 77 (ILVEADGAWVV; listed as Homo sapiens) [compound 77] | “++++” (≥75% = ++++) |
| 78 (SLFSSLEPQIQPV; listed as Homo sapiens) [compound 78] | “+++” (≥50 = +++) |
| 79 (SLFIGEKAVLL; listed as Homo sapiens) [compound 79] | “+++” (≥50 = +++) |

| Substance | Peptide exchange (MHC class I binding score, peptide exchange yield) |
| --- | --- |
| 80 (FLYDNLVESL; listed as Homo sapiens) [compound 80] | “++” (≥20% = ++) |
| 81 (FLFSQLQYL; listed as Homo sapiens) [compound 81] | “++” (≥20% = ++) |
| 82 (FLSSVTYNL; listed as Homo sapiens) [compound 82] | “+++” (≥50 = +++) |
| 83 (ILAPTVMMI; listed as Homo sapiens) [compound 83] | “+++” (≥50 = +++) |
| 84 (VTFGEKLLGV; listed as Homo sapiens) [compound 84] | “++” (≥20% = ++) |
| 85 (KMSELRVTL; listed as Homo sapiens) [compound 85] | “+++” (≥50 = +++) |
| 86 (NLIGKIENV; listed as Homo sapiens) [compound 86] | “+++” (≥50 = +++) |
| 87 (ALPEAPAPLLPHIT; listed as Homo sapiens) [compound 87] | “++” (≥20% = ++) |
| 88 (FLLVGDLMAV; listed as Homo sapiens) [compound 88] | “+++” (≥50 = +++) |
| 89 (YILPTETIYV; listed as Homo sapiens) [compound 89] | “++++” (≥75% = ++++) |
| 90 (TLLQIIETV; listed as Homo sapiens) [compound 90] | “+++” (≥50 = +++) |
| 91 (IMQDFPAEIFL; listed as Homo sapiens) [compound 91] | “++++” (≥75% = ++++) |
| 92 (YLIPFTGIVGL; listed as Homo sapiens) [compound 92] | “++” (≥20% = ++) |
| 93 (LLQAIKLYL; listed as Homo sapiens) [compound 93] | “++” (≥20% = ++) |
| 94 (YLIDIKTIAI; listed as Homo sapiens) [compound 94] | “++” (≥20% = ++) |
| 95 (SVIPQIQKV; listed as Homo sapiens) [compound 95] | “+++” (≥50 = +++) |
| 96 (YIFTDNPAAV; listed as Homo sapiens) [compound 96] | “+++” (≥50 = +++) |
| 97 (SLINGSFLV; listed as Homo sapiens) [compound 97] | “+++” (≥50 = +++) |
| 98 (LIIDQADIYL; listed as Homo sapiens) [compound 98] | “+++” (≥50 = +++) |

| Substance | Peptide exchange (MHC class I binding score, peptide exchange yield) |
| --- | --- |
| 99 (ALVSKGLATV; listed as Homo sapiens) [compound 99] | “++” (≥20% = ++) |
| 100 (YLLSTNAQL; listed as Homo sapiens) [compound 100] | “++++” (≥75% = ++++) |
| 101 (ILVGGGALATV; listed as Homo sapiens) [compound 101] | “+++” (≥50 = +++) |
| 102 (YLFESEGLVL; listed as Homo sapiens) [compound 102] | “+++” (≥50 = +++) |
| 103 (TLAEEVVAL; listed as Homo sapiens) [compound 103] | “+++” (≥50 = +++) |
| 104 (STMEQNFLL; listed as Homo sapiens) [compound 104] | “++++” (≥75% = ++++) |
| 106 (LLYDAVHIVSV; listed as Homo sapiens) [compound 106] | “+++” (≥50 = +++) |
| 107 (FLQPVDDTQHL; listed as Homo sapiens) [compound 107] | “+++” (≥50 = +++) |
| 108 (ALFPGVALLLA; listed as Homo sapiens) [compound 108] | “++++” (≥75% = ++++) |
| 109 (IILSILEQA; listed as Homo sapiens) [compound 109] | “++++” (≥75% = ++++) |
| 110 (FLSQVDFEL; listed as Homo sapiens) [compound 110] | “+++” (≥50 = +++) |
| 111 (YVWGFYPAEV; listed as Homo sapiens) [compound 111] | “+++” (≥50 = +++) |
| 113 (GLLPTPLFGV; listed as Homo sapiens) [compound 113] | “+++” (≥50 = +++) |
| 114 (SLVGEPILQNV; listed as Homo sapiens) [compound 114] | “++” (≥20% = ++) |
| 115 (AIAGAGILYGV; listed as Homo sapiens) [compound 115] | “++” (≥20% = ++) |
| 116 (YHIDEEVGF; listed as Homo sapiens) [compound 116] | “+” (≥10% = +) |
| 117 (ILPDGEDFLAV; listed as Homo sapiens) [compound 117] | “+++” (≥50 = +++) |
| 118 (KLIDNNINV; listed as Homo sapiens) [compound 118] | “+++” (≥50 = +++) |
